This is an account of results in paper PMC12305717.

The test has as its target MlucV reporter (mTFP1 - mutated firefly luciferase - Venus), urea-pre-unfolded / misfolding (firefly).

Sequence of Ydj1 (yeast class A J-domain protein) (P25491 whole entry): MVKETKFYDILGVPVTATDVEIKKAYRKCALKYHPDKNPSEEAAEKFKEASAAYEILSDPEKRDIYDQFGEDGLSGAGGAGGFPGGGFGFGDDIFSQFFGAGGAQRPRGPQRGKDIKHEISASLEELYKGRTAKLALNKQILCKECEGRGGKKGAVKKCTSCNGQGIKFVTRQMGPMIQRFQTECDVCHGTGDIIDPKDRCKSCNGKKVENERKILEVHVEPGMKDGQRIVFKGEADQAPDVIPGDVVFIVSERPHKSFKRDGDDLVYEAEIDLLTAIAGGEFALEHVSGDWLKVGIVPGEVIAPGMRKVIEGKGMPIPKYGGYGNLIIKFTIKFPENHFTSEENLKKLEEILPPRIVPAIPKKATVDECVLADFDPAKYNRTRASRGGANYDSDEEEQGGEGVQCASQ
Sequence of Ssa1 (yeast cytosolic Hsp70) (P10591 whole entry): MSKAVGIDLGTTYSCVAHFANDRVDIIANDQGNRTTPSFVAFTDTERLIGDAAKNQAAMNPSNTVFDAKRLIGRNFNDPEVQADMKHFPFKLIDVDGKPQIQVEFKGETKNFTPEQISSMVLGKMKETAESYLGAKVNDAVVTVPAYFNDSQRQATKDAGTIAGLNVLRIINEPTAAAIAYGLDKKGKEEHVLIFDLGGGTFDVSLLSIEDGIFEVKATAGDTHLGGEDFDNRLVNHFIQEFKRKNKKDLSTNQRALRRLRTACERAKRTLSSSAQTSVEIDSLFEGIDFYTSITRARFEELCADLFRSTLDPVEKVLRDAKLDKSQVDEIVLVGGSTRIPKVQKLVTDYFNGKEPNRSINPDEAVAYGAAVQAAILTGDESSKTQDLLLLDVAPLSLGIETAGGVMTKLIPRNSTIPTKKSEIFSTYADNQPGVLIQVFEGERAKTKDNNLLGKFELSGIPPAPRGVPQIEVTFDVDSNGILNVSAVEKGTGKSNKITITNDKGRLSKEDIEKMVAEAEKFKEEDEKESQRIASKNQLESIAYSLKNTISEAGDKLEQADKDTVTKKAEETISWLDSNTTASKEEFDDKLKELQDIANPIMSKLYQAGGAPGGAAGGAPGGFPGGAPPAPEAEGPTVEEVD

The substance “Ssa1 (yeast cytosolic Hsp70) (from UniProt P10591 1-642) (natural protein)” had a prevention of aggregation: normalised FRET of urea-pre-unfolded MlucV diluted into increasing Ssa1 (150% without chaperone) (% of the FRET of native MlucV) of 145.
“Ydj1 (yeast class A J-domain protein) (from UniProt P25491 1-409) (natural protein)”: the prevention of aggregation: normalised FRET of urea-pre-unfolded MlucV diluted into increasing Ydj1 (150% without Ydj1; native MlucV = 100%) (% of the FRET of native MlucV) came out at 105.
